Measurements as given in article PMC6951436 (Cell reports, 2019).
Values joined by “and” are separate entries in the source; they are usually repeats but may differ in a detail not shown here. Identical values can stand only once.

Biological target: the molecule itself
Assay: native gel or EMSA + SEC

Row | Protein | stoichiometry N
1 | pyruvate kinase liver isoform phosphorylated at S12 (PKL pS12) (enzyme, phosphoserine at 12 (71.2% phosphorylated)) not shown | 4 and 2
2 | pyruvate kinase liver isoform phosphorylated at S113 (PKL pS113) (enzyme, phosphoserine at 113 (82.8% phosphorylated)) not shown | 4 and 2
